Changes are numbered by the printed parent chain.
Tests used:
Test in all cases: SPR, antibody captured, C2 as analyte;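 also: biacore SPR at 37 °C, anti-C2 mAbs captured via goat anti-human IgG on CM5 chips, double-referenced sensorgrams fit to a 1:1 kinetic or steady-state model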
[1] = target: T1, human C2 A717S (human, UniProt P06681 21-752)
T1 sequence: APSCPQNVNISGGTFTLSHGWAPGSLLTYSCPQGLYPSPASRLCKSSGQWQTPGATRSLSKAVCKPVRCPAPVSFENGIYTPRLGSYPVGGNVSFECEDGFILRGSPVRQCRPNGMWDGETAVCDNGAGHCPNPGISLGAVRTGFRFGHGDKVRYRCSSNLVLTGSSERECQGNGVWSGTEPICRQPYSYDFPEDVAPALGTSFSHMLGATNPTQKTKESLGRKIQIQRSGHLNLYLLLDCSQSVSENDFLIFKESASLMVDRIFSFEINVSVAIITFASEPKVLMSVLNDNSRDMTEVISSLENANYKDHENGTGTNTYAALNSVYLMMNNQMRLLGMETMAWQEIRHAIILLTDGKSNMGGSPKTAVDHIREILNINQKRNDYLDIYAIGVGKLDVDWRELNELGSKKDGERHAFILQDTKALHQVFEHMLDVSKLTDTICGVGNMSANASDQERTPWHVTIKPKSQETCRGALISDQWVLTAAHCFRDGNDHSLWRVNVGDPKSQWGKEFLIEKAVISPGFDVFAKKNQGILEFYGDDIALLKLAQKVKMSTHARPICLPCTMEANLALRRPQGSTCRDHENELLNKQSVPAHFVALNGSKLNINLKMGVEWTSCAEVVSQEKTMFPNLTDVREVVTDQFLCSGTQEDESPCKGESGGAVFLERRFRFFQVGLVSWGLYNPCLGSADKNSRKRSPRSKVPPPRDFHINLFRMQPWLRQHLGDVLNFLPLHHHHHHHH

[2] = target: T2, human C2 T442A (human, UniProt P06681 21-752)
T2 sequence: T1 sequence with T422A, S697A

[3] = target: T3, human C2 G432A (human, UniProt P06681 21-752)
T3 sequence: T1 sequence with G412A, S697A

[4] = target: T4, human C2 Y702A (human, UniProt P06681 21-752)
T4 sequence: T1 sequence with Y682A, S697A

B1: RF16-226 (antibody, human IgG4 S228P, lambda)
heavy: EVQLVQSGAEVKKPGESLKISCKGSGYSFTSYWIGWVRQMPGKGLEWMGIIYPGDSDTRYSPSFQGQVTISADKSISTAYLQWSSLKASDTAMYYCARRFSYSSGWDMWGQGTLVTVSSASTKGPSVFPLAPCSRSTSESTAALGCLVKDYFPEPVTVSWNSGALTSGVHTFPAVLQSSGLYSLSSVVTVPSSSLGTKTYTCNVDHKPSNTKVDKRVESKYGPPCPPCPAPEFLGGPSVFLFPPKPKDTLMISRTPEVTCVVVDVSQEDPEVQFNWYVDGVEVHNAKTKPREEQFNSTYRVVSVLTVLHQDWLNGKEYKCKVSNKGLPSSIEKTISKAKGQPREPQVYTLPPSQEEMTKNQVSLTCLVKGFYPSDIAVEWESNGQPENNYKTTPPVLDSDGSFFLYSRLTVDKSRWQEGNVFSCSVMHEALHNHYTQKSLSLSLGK
light: SYELTQPPSVSVSPGQTARITCSGDALTSKYVAWYQQKSGLAPLLVIYEDTRRPSGIPAKFSGSSSGSVATLTISGAHGDDEADYYCYSTDASGHQRVFGGGTKLTVLSQPKAAPSVTLFPPSSEELQANKATLVCLISDFYPGAVTVAWKADGSPVKAGVETTKPSKQSNNKYAASSYLSLTPEQWKSHRSYSCQVTHEGSTVEKTVAPTECS
notes: pH-dependent anti-C2 antibody from a phage display library; also called WT
With B1 the Kd [1] was 406 nM, the Kd [2] was 23.7 nM and the Kd [3] was 6.6 nM. It also gave a Kd [4] of 106 nM.

Reference: US20220332804A1 (CSL INNOVATION, published 2022)
